Experimental data taken from the supplement of paper PMC11136658.

Test system: peptide library, one residue held at a place counted from the Y acceptor
Test: relative phosphorylation of the sub-library (ratio to the mean residue at this position); higher = residue favoured
Method in brief: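 Every value reflects phosphorylation relative to the mean randomized residue. The sum of the 18 randomized residues, or 16 in the Ser/Thr-free library, served to normalize intensities at each position, which were then multiplied by that number. Intensities came from phosphorimaging with ImageQuant of biotinylated Tyr-centred peptides captured on streptavidin membranes after 90 min with purified recombinant kinases and 50 μM ATP plus γ-32P-ATP.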

Chain of EPHB1, construct: aa613-881, human (P54762 613-881, looked up): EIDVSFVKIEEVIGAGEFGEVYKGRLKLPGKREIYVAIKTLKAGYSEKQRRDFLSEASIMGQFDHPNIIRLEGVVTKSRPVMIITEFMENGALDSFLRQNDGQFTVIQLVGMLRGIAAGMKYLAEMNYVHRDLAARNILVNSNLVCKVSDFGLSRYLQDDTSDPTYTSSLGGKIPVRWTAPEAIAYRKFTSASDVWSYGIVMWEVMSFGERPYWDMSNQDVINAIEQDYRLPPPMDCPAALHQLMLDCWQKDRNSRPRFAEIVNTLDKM
Chain of EPHA8, construct: aa571-924, human (P29322 571-924, looked up): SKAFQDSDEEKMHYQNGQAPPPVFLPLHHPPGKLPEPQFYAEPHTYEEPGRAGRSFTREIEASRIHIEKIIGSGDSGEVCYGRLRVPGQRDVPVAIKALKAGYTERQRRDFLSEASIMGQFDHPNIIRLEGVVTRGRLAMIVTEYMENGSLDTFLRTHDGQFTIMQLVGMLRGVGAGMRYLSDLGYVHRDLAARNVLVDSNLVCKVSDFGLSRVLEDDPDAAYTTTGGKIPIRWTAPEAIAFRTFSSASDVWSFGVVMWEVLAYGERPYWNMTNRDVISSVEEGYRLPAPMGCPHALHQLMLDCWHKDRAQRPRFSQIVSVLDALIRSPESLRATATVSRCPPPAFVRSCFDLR
Chain of EPHA7, construct: aa579-end, human (Q15375 579-998, looked up): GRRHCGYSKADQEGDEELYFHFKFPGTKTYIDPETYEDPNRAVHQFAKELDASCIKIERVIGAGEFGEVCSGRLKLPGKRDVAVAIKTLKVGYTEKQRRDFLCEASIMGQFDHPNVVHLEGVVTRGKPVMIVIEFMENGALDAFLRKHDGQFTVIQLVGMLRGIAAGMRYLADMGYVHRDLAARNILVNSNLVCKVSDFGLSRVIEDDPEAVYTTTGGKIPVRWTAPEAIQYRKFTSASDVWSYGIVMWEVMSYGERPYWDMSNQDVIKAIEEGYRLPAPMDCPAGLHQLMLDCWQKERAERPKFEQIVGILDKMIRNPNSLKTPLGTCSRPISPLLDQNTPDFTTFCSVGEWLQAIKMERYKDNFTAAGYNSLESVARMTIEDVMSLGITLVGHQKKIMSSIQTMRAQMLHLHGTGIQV

EPHA7, construct: aa579-end, human (from UniProt Q15375)
relative phosphorylation
Conditions	at +1	at +2	at +3	at +4	at +5	at -1	at -2	at -3	at -4	at -5
A fixed	1.63	0.698	0.618	0.79	1.04	0.492	1.21	0.817	1.18	1.03
D fixed	0.804	1.37	0.44	0.936	0.981	2.01	1.07	1.12	1.17	1.05
E fixed	3	1.79	0.398	1.01	1.04	1.39	1.31	1.43	1.14	0.918
F fixed	0.661	1.31	1.7	1.08	1.13	0.92	0.747	1.48	1.07	1.03
G fixed	0.476	0.39	0.464	1.21	1.12	0.251	1.15	0.953	1.34	1.19
H fixed	0.495	0.916	0.855	1.29	0.953	0.625	0.779	1.06	0.852	0.96
I fixed	1.65	1.04	2.77	0.729	0.818	2.61	0.88	1.08	0.939	1.04
K fixed	0.271	0.522	0.329	0.822	0.809	0.3	0.926	0.591	0.875	0.993
L fixed	0.905	0.894	1.97	0.718	1.03	2.03	0.845	0.944	1.11	0.96
M fixed	1.41	0.935	1.15	1.03	0.988	0.872	0.663	0.913	0.883	0.921
N fixed	0.429	1.21	0.479	0.793	0.815	1.99	0.985	0.995	0.772	1.1
P fixed	0.204	0.609	0.93	1.4	1.64	0.346	1.51	1.15	1.33	1.11
Q fixed	1.08	0.742	0.692	0.778	0.782	0.439	1.09	0.706	1.04	0.94
R fixed	0.358	0.924	0.455	1.03	0.859	0.489	1.05	0.759	0.945	1.1
S fixed	0.725	0.769	0.537	0.853	0.994	0.457	1.26	0.877	0.784	0.834
T fixed	0.803	0.994	0.615	0.904	1.01	1.1	0.921	0.895	0.673	0.851
V fixed	2.03	1.04	2.05	0.733	0.797	1.1	0.936	0.876	0.822	0.831
W fixed	1.06	1.84	1.55	1.89	1.19	0.569	0.67	1.36	1.07	1.15
pThr fixed	1.8	2.11	0.552	0.851	0.651	2.07	0.877	0.772	0.877	0.834
pTyr fixed	1.98	6.7	0.866	1.14	0.865	1.94	0.896	1.02	1.08	1.12

EPHA8, construct: aa571-924, human (from UniProt P29322)
relative phosphorylation
Conditions	at +1	at +2	at +3	at +4	at +5	at -1	at -2	at -3	at -4	at -5
A fixed	1.46	0.773	0.757	0.81	1.11	0.454	1.15	0.671	1.11	0.971
D fixed	0.978	1.49	0.359	0.911	1.19	1.98	1.35	1.49	1.48	1.17
E fixed	2.64	1.84	0.346	1.02	1.34	2.03	1.77	2.17	1.74	1.13
F fixed	0.777	1.38	1.62	1.22	0.934	0.855	0.708	1.42	1.07	1.02
G fixed	0.716	0.419	0.572	1.28	1.08	0.242	1.15	0.899	1.18	1.21
H fixed	0.624	0.838	0.819	1.11	1.1	0.672	0.853	1.03	0.87	1.06
I fixed	1.68	0.884	2.9	0.857	0.617	2.9	0.735	0.849	0.845	0.956
K fixed	0.266	0.506	0.32	0.772	0.957	0.249	0.685	0.528	0.715	0.87
L fixed	0.814	0.891	1.71	0.778	0.721	1.54	0.792	0.651	0.901	0.949
M fixed	1.37	0.786	1.23	0.944	0.855	0.698	0.559	0.833	0.843	1.02
N fixed	0.384	1.1	0.453	0.838	0.869	1.92	1.22	1.07	0.96	1.05
P fixed	0.293	0.783	1.11	1.39	1.72	0.391	1.4	0.927	0.974	1.08
Q fixed	1.07	0.823	0.559	0.932	0.897	0.402	1.11	0.813	1.12	0.977
R fixed	0.318	0.723	0.453	1.05	1.14	0.288	0.778	0.688	0.818	0.884
S fixed	0.849	0.886	0.485	0.822	0.943	0.422	1.14	0.958	0.838	0.834
T fixed	0.745	0.855	0.607	0.795	0.96	1.15	0.865	0.837	0.67	0.782
V fixed	1.7	0.914	2.1	0.81	0.644	1.11	0.947	0.728	0.779	0.849
W fixed	1.32	2.12	1.59	1.65	0.932	0.693	0.778	1.44	1.1	1.19
pThr fixed	1.94	2.25	0.437	1.02	1.1	3.17	1.26	1.04	0.986	0.968
pTyr fixed	4.68	7.04	1.16	1.22	1.39	2.63	1.63	1.34	1.37	1.27

EPHB1, construct: aa613-881, human (from UniProt P54762)
relative phosphorylation
Conditions	at +1	at +2	at +3	at +4	at +5	at -1	at -2	at -3	at -4	at -5
A fixed	1.86	0.98	0.818	0.902	1.1	0.664	1.16	0.857	0.999	0.906
D fixed	0.907	1.01	0.511	1.08	1.13	2.22	1.09	1.22	1.23	1.15
E fixed	2.33	1.18	0.427	1.04	1.06	1.2	1.27	1.34	1.26	1.01
F fixed	0.676	1.14	1.37	1.06	1.13	1.19	0.677	1.31	1.19	1.07
G fixed	0.571	0.414	0.575	1.03	1.05	0.223	1.23	0.898	1.15	0.979
H fixed	0.566	0.769	1.39	1.18	0.938	0.762	0.888	1.05	0.872	0.934
I fixed	1.67	1.36	2.18	0.773	0.815	2.09	0.872	0.944	0.907	0.956
K fixed	0.212	0.585	0.29	0.744	0.784	0.264	0.946	0.631	0.931	1.05
L fixed	0.823	1.04	1.37	0.828	1.08	1.95	0.914	1.02	1.07	1.11
M fixed	1.48	0.935	1.19	1.07	1.01	0.95	0.689	0.874	0.872	0.926
N fixed	0.383	0.951	0.731	0.806	0.856	1.81	1.05	1.03	0.844	1.13
P fixed	0.195	0.858	0.899	1.29	1.49	0.436	1.33	1.2	1.21	0.947
Q fixed	1.22	0.982	0.849	1.07	0.94	0.423	1.13	0.835	1.19	1.13
R fixed	0.252	0.768	0.419	0.835	0.782	0.29	0.905	0.672	0.9	1.01
S fixed	0.934	0.981	0.691	0.94	0.972	0.519	1.3	0.923	0.722	0.841
T fixed	0.868	1.02	0.848	0.939	0.938	0.968	0.917	0.844	0.667	0.757
V fixed	1.83	1.56	1.95	0.911	0.876	1.24	0.912	0.928	0.854	0.949
W fixed	1.22	1.45	1.49	1.5	1.05	0.811	0.714	1.42	1.14	1.15
pThr fixed	1.9	1.95	0.439	1.03	0.655	1.58	0.851	0.856	0.945	1.02
pTyr fixed	1.56	3.38	0.718	1.1	0.883	1.69	0.936	1.13	1.12	1.25
